Experiment: yeast display, Sf9 membrane polyspecificity reagent, FACS + sequencing; frameworks hold sequencing errors
How it was run: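 Using colony PCR, genes from sorted yeast display clones were amplified, then sequenced on MiSeq at 2 × 250 and filtered by CDR length. The clones had been stained with 10% biotinylated, detergent-solubilized Sf9 membrane reagent for 1 hour at 4 °C and sorted by FACS into low and high (top ~1%) gates on anti-HA and streptavidin fluorescence. Polyreactivity labels come from the gate of origin.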

Sequence	polyreactivity (PSR sort gate)
QVQLVESGGGLVQAGGSLRLSCAASGSTFLTNVMGWYRQAPGKERELVAAITIGGSTNYADSVKGRFTISRDNAKNTVYLQMNSLKPEDTAVYYCATDIRRKPRYVDYEYWGQGTQVTVSS	low polyreactivity
QVQLVESGGGLVQAGGSLRLSSAASGITFATYAMGWYRQAPGKERELVAAISSSTGSTYYADSVKGRFTISRDNAKNTVYLQMNSLKPEDTAVYYCAAVRTQQYDYWGQGTQVTVSS	low polyreactivity
QVQLVESGGGLVQAGGSLRVSCAASGLNFYGNAMGWYRQAPGKERELVAAISWSGGNTSYADSVKGRFTISRDNAKNTVYLQMNSLKPDDTAVYYCNADSLPSVERYGYWGQGTQVTVSS	low polyreactivity
QVQLVESGGGLVQAGGSLRLSCAASGFIFRSYAMGWYRQAPGKERELVAAISRSGGSTYYADSVKGRFTISRDNAKNTVYLQMNSLKPEDTAVYYCNTARRDREVDYWGQGTQVTVSS	high polyreactivity
QVQLVESGGGLVQAGGSLRLSCAASGFTFFKYAMGWYRQAPGKERELVAAISSSGGSTYYADSVKGRFTISRDNAKNTVYLQMNSLKPEDSAVYYCNRPAAVYFKLVTAYDYWGQGTQVTVSS	high polyreactivity
QVQLVESGGGLVQAGGSLRLSCAASGRILSGNAMGWYRQAPGKERELVAAITNAGITKYADSVKGRFTISRDNAKNTVYLQMNSLKPEDTAVYYCATDRYAYKLYDYWGQGTQVTVSS	low polyreactivity
QVQLVESGGGLVQAGGSLRLSCAACGRISTAYAMGGYRQAPGTERELVAAISSGTSTTYADSVKGRFTISRDNAKNTVYLQMNSLKPEDTAVYYCAAPGRYGEYDYWGQGTQVTVSS	low polyreactivity
QVQLVESGGGLVQAGGSLRLSCAASGSILYVYAMGWYRQAPGKERELVAVITSGGSTNYADSVKGRFTISRDNAKNTVYLQMNSLKPEDTAVYYCRFKYAVAHHFWVYRYDYWGQGTQVTVSS	low polyreactivity
QVQLQESGRRPGAAGGSPRMSCAASGNIFWVAVMGRYRQAPGKERELVASIGFGCTTYYADSVKCRFTISRDNAKKTVYLQMISLKPEDTAVYYCAAPNYDWGELDYWGQGTQVPVSS	low polyreactivity
QVQLVESGGGLVQAGGSLRLSCAASGLTFWRYVMGWYRQAPGKERELVATISIGGSTNYADSVKGRVTISRDNAKNTVYLQMNSLKPEDTAVYYCAAKFRGDVFPYYYWGQGTQVTVSS	high polyreactivity
QVQLVDSGGGLVQAGGSLRLSCAASGSTFQGNTMGWYRQAPGKERELVAAISRSGGITYYADSVKGRFTISRVNAKNTVYLQMNSLKPEDTAVYYCAAKQVFTAGRSVDYWGQGTQVTVSS	high polyreactivity
QVQLEESGGGLVQGGCSLRLSCAGSGSIFIQYDMGWYRQAPVIERELVATIRSGDSTTYADSVKGRFTISRDNAKNTVYLQMNSLKPEDTAVYYCAKDYRLDYDYDYWGQGTQVTVSS	low polyreactivity
QVQLVESGGRLVQAGGSLRLSCAASGSTFHSYVMGWYRQAPGKERELVAAITSRGGSTNYADSVKGRFTISRDNAKNTVYLKMNSLIPEDTAVYYCAADCYWGWSYFRYDYWGQVTQVTVSS	low polyreactivity
QVQLVESGGGLVQAGGSLRLSCAASGRIFWRYAMGWYRQAPGKERELVAGISASGGSTFYADSVKGRFTISRDNAKNTVYLQMNSLKPEDTAVYYCAAVSRYIWYSARESYYWGQGTQVTVSS	high polyreactivity
QVQLVESGGGLVQAGGSLRLSCAASGSIFGYYAMGWYRQAPGKERELVAAITSDGSTYYADSVKGRFTITRDNAKNTVNLQMNSLKPEDTAVYYCAAYSWYYTSRYDYWGQGTQVTVSS	low polyreactivity
QVQLGESGGGLVQAGGSLRLSCAASGSTFGGYAMGWYRQAPGKERELVAAISSSGTSTYYADSVKGRFTISRDNAKNTVYLQMNSLKPDDTAVYYCATDFSFFSRFDYWGQGTQVTVSS	low polyreactivity
QVQLVESGGGLVQAGGSLSLSCAASGSTFDRNAMGWYRQAPGKERELVAGISFSGGSTYYADSVKGRFTISRDNAKNTVYLQMNSLKPEDTAVYYCAASTYQPGAVPFDYWGQGTQVTVSS	low polyreactivity
QVQLVESGGGLVQAGGSLRLSCAASGSTFSLYDMGWYRQAPGKERELVAAISYSGGSTYYADSVKGRFTISRDNAKNTVYLQMNSLKPEDTAVFYCATRLFYPRFFYWGQGTQVTVSS	high polyreactivity
QYQLVESGGGLVQAGGSLRLSCAASGSTFRANTMGWYRQAPGKERELVSTITRGTITKYADSVKGRFTISRDNAKNPVYLQMNSLKAEDTAVFDCAVDQAYVRRNWGYTGYVTYDHWGQGTQVTVSS	high polyreactivity
QVQLVESGGGLVQAGGSLRLSCAASGITFSVYAMGWYRQAPGKERELVASISSGGTSTYYADSVKGRFTISRDNAKNTVYLQMNSLKPEDTAVYYCAAYSYYTGDQYSYDYWGQGTQVTVSS	low polyreactivity
QVQLVESGGGLVQAGGSLRLSCAASGIIFTYAMGWYRPAPGKERELVAAIDWRGGRTYYADSVKGRFTISRDNAKNTVYLQMNSLKPEDTSVYYCGARLPGGTYYWGQGTQVTVSS	high polyreactivity
QVQLVESGGGLVQAGGSLRLSCDASGNTSSYYTMGWYRQAPGKERELGARISNRGTNTYYAESVKGRVTISRDNAKNTVYLQMNSLKPEDTAVYYCAALYWFYVYPFTEYDYWGQGTQVTVSS	low polyreactivity

Sequence	polyreactivity (PSR sort gate)
QVQLVESGGGLVQAGGSLRLSCAASGRIFYRYAMGWSRQAPGKERELVASITTSGDSTYYADSVKGRFTISRDNAKNTVYLQMNSLKPEDTAVYYCAARSYRGRRYDYWGQGTQVTVSS	high polyreactivity
QVQLVESGGGLVQAGGSLRLRCAASGFTFYWYAMGWYRQAPGKEREIVAAIDQSGGSTYYADSVKGRFTISRDNAKNSVYLQMNSLKQEDTAVYYCAARYILWDGDSWTEFDYWGQGTQVTVSS	low polyreactivity
QVQLEESGGGLVQAGGSLRLSCAASGSTFTRYAMGWYRQAPGKERELVAAISRGGSTNYADSVKGRFTISRDNAKNTVYLQMNSLKPEDTAVYYCAARSWYLRYDYWGQGTQVTVSS	high polyreactivity
QVQLVESGGGLVQAGGSLRLSCAASGSIVSVYAMGWSRQAPGKEREWVAAISGRGGRTYYADSVKGRFTISRDNAKNTVYLQMNSLKPVDTAVYYCAARYPRYRYVEYGYNYWGQGTQVTVSS	high polyreactivity
QVQLVESGGCLVQAGGSLRLICAASGSIFDYNAMGWYRQAPGKERELVADITLSDDSTYYADSVKGRFTISRDNAKNTVYLQKNSLKPEDTAVYYCAADIKYYWYYYYWAYAYDYWGQGTQVTVSS	high polyreactivity
QVQLVESGGGVVQAGVSLRLSCAASGFTSHGYAKGWYRQAPGQERELVAAIDSVGSTYYADSVKGRFTISRDNSKNTVYLQMNSLKQEDTAVYYCAARRKRVSFYQEYDYWGQGTQVTVSS	low polyreactivity
QVQLVESGGGLVQAGGSLRLSCAASGRTFRYYAMGWYRQAPGKERELVATISSGGSTNYADSVKGRFTISRDNAKNTVYLQMNSLKPEDTAVYYCNARRSTDPARYYWGQGTQVTVSS	high polyreactivity
QVQLVESGGGLVQAGGSLRLSCAASGSIFGVYAMGWYRQAPGKERGLVARISGSSGSTRYADSVKGRFTISRDNAKNTVYLQMNSLKPEDTAVYYCAARAIFRQGDRIYDSWGQGTQVTVSS	high polyreactivity
QVQHVESGGGLVQAGGSLRLSCAASGSIFGDNAMGWYRQAPGKERELVAAISSGGPTYADSVKGRFTISRDNAKNTVYLQMNSLKPEDTAVYYCNATDGITPYDLTDIEFDYWGQGTQVTVSS	low polyreactivity
PVQLVESGGGVVQAGGSLRLSCAASGSIFDENAKGWNRQAPGKERELVAAISSGGSTNYADSVKGRFTITRDNAKNTVYLQMNSLKPEDTAVYYCNNKSRRQYDYWGQGTQVTVSS	low polyreactivity
QVQLVESGAGIVQAGGSLRLSCAASGSTFGRYAMGLYTQAPGKERELVAAISASGGSTYYADSVKGRFTISRDNAKTTVYLQMNSLTPEDTAVYYCAKDRPQTRLWYYFIDDYDYRGQGTQVTVSS	high polyreactivity
QVQLVESGGGLVQAGGSLRLSCAASGFIFPVYTMGWYRQAPGKERELVAAITQIGGSTHYADSVTGRFTISRDNAKNTVYLQMNSLKPEDTAVYYCNAVPSYGTEYDYWGQGTQVTVSS	low polyreactivity
QVQLVESGGGLVQAGGSLRLICAASGLTFNYYVMGWYRQAPGKERELVAAISYSGGRTYYADSVKGRFTISRDNANNTVYLQMNSLKPEDTAVYFCNVTGHRNSFIYYGGYEYWGQGTQVTVSS	high polyreactivity
QVQLVESGGGLDQSGGSLRISCAASGSTFYRNAMGWYRQAPGKEREFVAAITTDDSTYYADSVKGRFTISRDNAKNTVYLQMNSLKPEDTAVYYCAAGLEGKATWAAVGGYDYWGQGTQVTVSS	low polyreactivity
QVQLVESGGGLVQAGGSLSLSCAASGSTFGRYVMGWDRQAPGTERELVAAISYSGGRSYYADSVKGRFTMSRDNAKNTVYLQMNSLKPEDTAVYYCNAYGIDTGDYWGQGTQVTVSS	high polyreactivity
QVQLVESGGGLVQAGGSLRLSCAASGNTFVFYAMGWYRQAPGKERELVAAIDTGGTTNYADSVKGRFTISRDNAKNTVYLQMNSLKPEDTAVYYCAKRRLYWSGQGWVRTYGYWGQGTQVTVSS	high polyreactivity
QVQLVESGGGLVQAGGSLRLSCDASGRHFKRYDMGWYRQAPGKERELVAAISWSGTSTHYADSVKGRLTISRDNAKNTVYLQMNSLKPEDTAVYYCAAYWFNTSYPGRYDYWGQGTQVTVSS	high polyreactivity
QVQLVESGGGLVQAGGSLRLSCAASGSIFAHYAMGWYRQAPGKARELVAAISRGGGSTYYSDSVKGRFTISRDNAKNTVYLQMNSLKPEDTAVYYCAVVRSYRGINDYWGQGTQVTVTS	low polyreactivity
QVQLVESGGGLVQAGGSLSLSCAASGRTFWVYAMGWYRQAPGKERELVAAIRRGGITNYADSVKGRFTNSRDNAKNTVYLQMNCLKPEDTALYYCDTDKYGYLTRYYYWGQGTQVTVSS	low polyreactivity
QVQLVESGRGLVQAGGSLRLSCAASGRTFRFNAMGWYRQAPGKEREFVAAITSGGGTYYADSVKGRFTISRDNAKNTVYLQMNSLKPEDTAVYYCAAPRQYYLMDYGGQGTQVTVSS	low polyreactivity
QVQLVESGVGLVQAGGSLRLSCAASGFIFHRNAMGWYRQAPGKERELVASITKRGGNTYYADSVKGRFTISRDNAKNTVYLQMNSLKPEDTAVYYCATHLWGWDWKRDYWGQGTQVTVSS	high polyreactivity

Reference: the nanobody polyreactivity screen of Harvey et al. (2022)
